Measurements taken from PMC11089518, “Development of Prolinol Containing Inhibitors of Hypoxanthine–Guanine–Xanthine Phosphoribosyltransferase: Rational Structure-Based Drug Design” (Journal of Medicinal Chemistry, 2024).

B1: human hypoxanthine-guanine phosphoribosyltransferase (human HGPRT) (enzyme)
chain: MATRSPGVVISDDEPGYDLDLFCIPNHYAEDLERVFIPHGLIMDRTERLARDVMKEMGGHHIVALCVLKGGYKFFADLLDYIKALNRNSDRSIPMTVDFIRLKSYCNDQSTGDIKVIGGDDLSTLTGKNVLIVEDIIDTGKTMQTLLSLVRQYNPKMVKVASLLVKRTPRSVGYKPDFVGFEIPDKFVVGYALDYNEYFRDLNHVCVISETGKAKYKA
notes: hypoxanthine-guanine phosphoribosyltransferase, human; source: expressed and purified to homogeneity as previously described
B2: Trypanosoma brucei hypoxanthine-guanine phosphoribosyltransferase isoform 1 (TBrHGPRT1) (enzyme, UniProt Q07010 1-210, looked up)
chain: MEPACKYDFATSVLFTEAELHTRMRGVAQRIADDYSNCNLKPLENPLVIVSVLKGSFVFTADMVRILGDFGVPTRVEFLRASSYGHDTKSCGRVDVKADGLCDIRGKHVLVLEDILDTALTLREVVDSLKKSEPASIKTLVAIDKPGGRKIPFTAEYVVADVPNVFVVGYGLDYDQSYREVRDVVILKPSVYETWGKELERRKAAGEAKR
notes: hypoxanthine-guanine phosphoribosyltransferase isoform HGPRT1 (cytoplasmic) of Trypanosoma brucei; source: expressed and purified to homogeneity as previously described

Legend:
[1] = target: the molecule itself; test: crystal structure; human HGPRT (10 mg/mL, 0.4 mM) with inhibitor 1 (0.3 M calcium acetate, 20% PEG 3350) or 5 (0.3 M sodium acetate, 17.5% PEG 3350), hanging drop; oligomer as refined in the asymmetric unit
[2] = target: the molecule itself; test: crystal structure; TbrHGPRT1 (8 mg/mL, 0.3 mM) with inhibitor 4 or 5, 0.2 M MgCl2, 0.1 M Bis-Tris pH 5.0, 20% PEG 3350, hanging drop; oligomer as refined in the asymmetric unit

Protein | stoichiometry N [1] | stoichiometry N [2]
B1 | 4 | –
B2 | – | 2
